Reference: article PMC12008863 (Journal of Translational Medicine, 2025)

What was measured:
[1] = target: T1, Transthyretin (human, amino acids 21-147, recombinant) (human, UniProt P02766 21-147); test: Langmuir equilibrium adsorption
[2] = target: T1, Transthyretin (human, amino acids …); test: SPR

B1: Heterogeneous nuclear ribonucleoprotein A2B1 (human, amino acids 12-195, recombinant) (domain or fragment)
chain: RKKREKEQFRKLFIGGLSFETTEESLRNYYEQWGKLTDCVVMRDPASKRSRGFGFVTFSSMAEVDAAMAARPHSIDGRVVEPKRAVAREESGKPGAHVTVKKLFVGGIKEDTEEHHLRDYFEEYGKIDTIEIITDRQSGKKRGFGFVTFDDHDPVDKIVLQKYHTINGHNAEVRKALSRQEMQE
Kd [1]: 7.13 µM | Kd [2]: 3.68 µM
